Data: patent publication US20140087995A1 (published 2014)
Numbered stars: 1 amine (or outer) side, 2 acyl side, 3 side chain; on linkers, the order of the positions; unused ones are H or OH. Bridge positions count the residues as written; N and C are the ends. Side chains are listed from the residue outwards. Ends that are not written are not given here. * marks the point of attachment. C20 diacid = O=C(O)CCCCCCCCCCCCCCCCCCC(=O)*; γGlu = O=C(O)[C@H](CCC(=O)[*:2])N[*:1]

T1: rat calcitonin receptor (rat, UniProt P32214 25-516)
T1 construct: whole, on cells; also called rCTR; rat calcitonin (a) receptor
T1 sequence (looked up): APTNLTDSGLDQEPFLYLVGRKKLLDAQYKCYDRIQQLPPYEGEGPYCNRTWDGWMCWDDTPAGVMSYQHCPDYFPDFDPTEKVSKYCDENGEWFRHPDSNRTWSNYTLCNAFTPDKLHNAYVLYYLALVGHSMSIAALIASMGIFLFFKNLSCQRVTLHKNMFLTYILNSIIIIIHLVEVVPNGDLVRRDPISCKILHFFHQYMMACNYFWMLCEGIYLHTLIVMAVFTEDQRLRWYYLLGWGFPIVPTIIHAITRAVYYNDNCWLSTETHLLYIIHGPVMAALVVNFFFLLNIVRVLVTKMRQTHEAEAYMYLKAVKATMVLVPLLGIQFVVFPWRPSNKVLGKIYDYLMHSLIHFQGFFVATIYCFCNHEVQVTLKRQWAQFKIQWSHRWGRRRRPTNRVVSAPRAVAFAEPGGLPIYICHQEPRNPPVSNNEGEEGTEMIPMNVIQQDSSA

T2: human calcitonin receptor (human, UniProt P30988 25-474)
T2 construct: whole, on cells; also called hCTR; hCT
T2 sequence (looked up): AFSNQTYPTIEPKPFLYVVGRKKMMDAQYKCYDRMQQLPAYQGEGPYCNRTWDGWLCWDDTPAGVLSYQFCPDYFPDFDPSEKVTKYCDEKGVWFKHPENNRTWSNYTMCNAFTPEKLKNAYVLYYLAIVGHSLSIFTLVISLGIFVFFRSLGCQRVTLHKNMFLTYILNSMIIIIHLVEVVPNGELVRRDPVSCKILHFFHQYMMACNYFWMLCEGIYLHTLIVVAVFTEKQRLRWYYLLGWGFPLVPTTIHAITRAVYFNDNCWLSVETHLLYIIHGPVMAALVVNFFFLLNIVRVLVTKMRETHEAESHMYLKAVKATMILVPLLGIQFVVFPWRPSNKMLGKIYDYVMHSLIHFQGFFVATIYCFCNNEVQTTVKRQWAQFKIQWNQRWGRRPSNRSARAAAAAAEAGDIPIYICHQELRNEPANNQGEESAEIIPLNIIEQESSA

T3: rat amylin receptor (rat calcitonin receptor + rat RAMP 3) (rat, UniProt P32214 25-516; Q9JJ73 23-147)
T3 construct: whole, on cells; also called rAmylin-R; rat amylin 3(a) receptor
T3 sequence (looked up) 1: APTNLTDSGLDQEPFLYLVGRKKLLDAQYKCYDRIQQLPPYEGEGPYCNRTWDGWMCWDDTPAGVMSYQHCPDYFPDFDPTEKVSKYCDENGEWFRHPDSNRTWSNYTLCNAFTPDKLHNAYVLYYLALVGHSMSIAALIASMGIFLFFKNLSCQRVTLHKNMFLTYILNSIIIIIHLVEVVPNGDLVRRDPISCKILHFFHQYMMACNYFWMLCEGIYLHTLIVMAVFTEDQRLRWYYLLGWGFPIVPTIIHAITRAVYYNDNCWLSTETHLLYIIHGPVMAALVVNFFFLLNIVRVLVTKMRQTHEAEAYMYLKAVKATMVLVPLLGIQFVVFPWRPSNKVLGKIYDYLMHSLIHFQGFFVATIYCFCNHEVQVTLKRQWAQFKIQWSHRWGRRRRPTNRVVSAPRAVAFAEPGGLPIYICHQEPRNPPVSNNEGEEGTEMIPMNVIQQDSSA
T3 sequence (looked up) 2: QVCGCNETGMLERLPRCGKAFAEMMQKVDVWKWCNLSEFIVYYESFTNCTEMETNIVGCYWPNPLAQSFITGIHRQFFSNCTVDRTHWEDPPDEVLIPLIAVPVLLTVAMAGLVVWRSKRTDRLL


Columns and labels:
rat calcitonin receptor [1] = target: T1, rat calcitonin receptor; assay: SPA competition with 125I-calcitonin, membranes of BHK cells with rat calcitonin receptor (Assay VIII)
rat calcitonin receptor [2] = target: T1, rat calcitonin receptor; assay: ratio of binding IC50s: rat calcitonin receptor over rat amylin receptor (reference)
[3] = target: T2, human calcitonin receptor; assay: ratio of binding IC50s: human calcitonin receptor over human amylin receptor (reference)
Procedure, shortened: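 IC₅₀ values were derived by one-site competition analysis of SPA counts. Cell membranes (35 ng/μL) with SPA beads were incubated with test compounds for 120 min at 25° C in Hepes buffer, pH 7.4, containing CaCl2, MgCl₂, OA and Tween20.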

[4] = target: T3, rat amylin receptor (rat calcitonin …); assay: SPA competition with 125I-rat amylin, membranes of BHK cells with rat calcitonin receptor + rat RAMP3 (Assay VI)

Binder | IC50 (rat calcitonin receptor [1]) [nM] | Ratio rCT/rAmylin binding (rat calcitonin receptor [2]) | Ratio hCT/hAmylin binding [3] | IC50 [4] [nM]
K([γGlu-C20 diacid])CNTATCATQRLAHFLRHSSPNFGAIPSSTNVGRNTY-NH2 (disulfide 2-7; N-terminus assumed; SMILES CC[C@H](C)[C@H](NC(=O)[C@H](C)NC(=O)CNC(=O)[C@H](Cc1ccccc1)NC(=O)[C@H](CC(N)=O)NC(=O)[C@@H]1CCCN1C(=O)[C@H](CO)NC(=O)[C@H](CO)NC(=O)[C@H](Cc1c[nH]cn1)NC(=O)[C@H](CCCNC(=N)N)NC(=O)[C@H](CC(C)C)NC(=O)[C@H](Cc1ccccc1)NC(=O)[C@H](Cc1c[nH]cn1)NC(=O)[C@H](C)NC(=O)[C@H](CC(C)C)NC(=O)[C@H](CCCNC(=N)N)NC(=O)[C@H](CCC(N)=O)NC(=O)[C@@H](NC(=O)[C@H](C)NC(=O)[C@@H]1CSSC[C@H](NC(=O)[C@@H](N)CCCCNC(=O)CC[C@H](NC(=O)CCCCCCCCCCCCCCCCCCC(=O)O)C(=O)O)C(=O)N[C@@H](CC(N)=O)C(=O)N[C@@H]([C@@H](C)O)C(=O)N[C@@H](C)C(=O)N[C@@H]([C@@H](C)O)C(=O)N1)[C@@H](C)O)C(=O)N1CCC[C@H]1C(=O)N[C@@H](CO)C(=O)N[C@@H](CO)C(=O)N[C@H](C(=O)N[C@@H](CC(N)=O)C(=O)N[C@H](C(=O)NCC(=O)N[C@@H](CCCNC(=N)N)C(=O)N[C@@H](CC(N)=O)C(=O)N[C@H](C(=O)N[C@@H](Cc1ccc(O)cc1)C(N)=O)[C@@H](C)O)C(C)C)[C@@H](C)O, synthetic analogue of human amylin; also called compound 85) | 146 | 46.5 | 91.8 | 3.14
K([γGlu-C20 diacid])CNTATCATQRLAHFLRHSSPNFGAIPSSTPVGSNTY-NH2 (disulfide 2-7; N-terminus assumed; SMILES CC[C@H](C)[C@H](NC(=O)[C@H](C)NC(=O)CNC(=O)[C@H](Cc1ccccc1)NC(=O)[C@H](CC(N)=O)NC(=O)[C@@H]1CCCN1C(=O)[C@H](CO)NC(=O)[C@H](CO)NC(=O)[C@H](Cc1c[nH]cn1)NC(=O)[C@H](CCCNC(=N)N)NC(=O)[C@H](CC(C)C)NC(=O)[C@H](Cc1ccccc1)NC(=O)[C@H](Cc1c[nH]cn1)NC(=O)[C@H](C)NC(=O)[C@H](CC(C)C)NC(=O)[C@H](CCCNC(=N)N)NC(=O)[C@H](CCC(N)=O)NC(=O)[C@@H](NC(=O)[C@H](C)NC(=O)[C@@H]1CSSC[C@H](NC(=O)[C@@H](N)CCCCNC(=O)CC[C@H](NC(=O)CCCCCCCCCCCCCCCCCCC(=O)O)C(=O)O)C(=O)N[C@@H](CC(N)=O)C(=O)N[C@@H]([C@@H](C)O)C(=O)N[C@@H](C)C(=O)N[C@@H]([C@@H](C)O)C(=O)N1)[C@@H](C)O)C(=O)N1CCC[C@H]1C(=O)N[C@@H](CO)C(=O)N[C@@H](CO)C(=O)N[C@H](C(=O)N1CCC[C@H]1C(=O)N[C@H](C(=O)NCC(=O)N[C@@H](CO)C(=O)N[C@@H](CC(N)=O)C(=O)N[C@H](C(=O)N[C@@H](Cc1ccc(O)cc1)C(N)=O)[C@@H](C)O)C(C)C)[C@@H](C)O, synthetic analogue of human amylin; also called compound 62) | 18 | 42.8 | 63 | 0.42
K([γGlu-C20 diacid])CNTATCATQRLAHFLRHSSPNFGAIPSSTNVGHNTY-NH2 (disulfide 2-7; N-terminus assumed; SMILES CC[C@H](C)[C@H](NC(=O)[C@H](C)NC(=O)CNC(=O)[C@H](Cc1ccccc1)NC(=O)[C@H](CC(N)=O)NC(=O)[C@@H]1CCCN1C(=O)[C@H](CO)NC(=O)[C@H](CO)NC(=O)[C@H](Cc1c[nH]cn1)NC(=O)[C@H](CCCNC(=N)N)NC(=O)[C@H](CC(C)C)NC(=O)[C@H](Cc1ccccc1)NC(=O)[C@H](Cc1c[nH]cn1)NC(=O)[C@H](C)NC(=O)[C@H](CC(C)C)NC(=O)[C@H](CCCNC(=N)N)NC(=O)[C@H](CCC(N)=O)NC(=O)[C@@H](NC(=O)[C@H](C)NC(=O)[C@@H]1CSSC[C@H](NC(=O)[C@@H](N)CCCCNC(=O)CC[C@H](NC(=O)CCCCCCCCCCCCCCCCCCC(=O)O)C(=O)O)C(=O)N[C@@H](CC(N)=O)C(=O)N[C@@H]([C@@H](C)O)C(=O)N[C@@H](C)C(=O)N[C@@H]([C@@H](C)O)C(=O)N1)[C@@H](C)O)C(=O)N1CCC[C@H]1C(=O)N[C@@H](CO)C(=O)N[C@@H](CO)C(=O)N[C@H](C(=O)N[C@@H](CC(N)=O)C(=O)N[C@H](C(=O)NCC(=O)N[C@@H](Cc1c[nH]cn1)C(=O)N[C@@H](CC(N)=O)C(=O)N[C@H](C(=O)N[C@@H](Cc1ccc(O)cc1)C(N)=O)[C@@H](C)O)C(C)C)[C@@H](C)O, synthetic analogue of human amylin; also called compound 81) | 61.1 | 42.9 | 87.2 | 1.42
K([γGlu-C20 diacid])CNTATCATQRLAHFLRHSSPNFGAIPSSTNVGSHTY-NH2 (disulfide 2-7; N-terminus assumed; SMILES CC[C@H](C)[C@H](NC(=O)[C@H](C)NC(=O)CNC(=O)[C@H](Cc1ccccc1)NC(=O)[C@H](CC(N)=O)NC(=O)[C@@H]1CCCN1C(=O)[C@H](CO)NC(=O)[C@H](CO)NC(=O)[C@H](Cc1c[nH]cn1)NC(=O)[C@H](CCCNC(=N)N)NC(=O)[C@H](CC(C)C)NC(=O)[C@H](Cc1ccccc1)NC(=O)[C@H](Cc1c[nH]cn1)NC(=O)[C@H](C)NC(=O)[C@H](CC(C)C)NC(=O)[C@H](CCCNC(=N)N)NC(=O)[C@H](CCC(N)=O)NC(=O)[C@@H](NC(=O)[C@H](C)NC(=O)[C@@H]1CSSC[C@H](NC(=O)[C@@H](N)CCCCNC(=O)CC[C@H](NC(=O)CCCCCCCCCCCCCCCCCCC(=O)O)C(=O)O)C(=O)N[C@@H](CC(N)=O)C(=O)N[C@@H]([C@@H](C)O)C(=O)N[C@@H](C)C(=O)N[C@@H]([C@@H](C)O)C(=O)N1)[C@@H](C)O)C(=O)N1CCC[C@H]1C(=O)N[C@@H](CO)C(=O)N[C@@H](CO)C(=O)N[C@H](C(=O)N[C@@H](CC(N)=O)C(=O)N[C@H](C(=O)NCC(=O)N[C@@H](CO)C(=O)N[C@@H](Cc1c[nH]cn1)C(=O)N[C@H](C(=O)N[C@@H](Cc1ccc(O)cc1)C(N)=O)[C@@H](C)O)C(C)C)[C@@H](C)O, synthetic analogue of human amylin; also called compound 66) | 20.8 | 35.8 | 45.5 | 0.581
K([γGlu-C20 diacid])CNTATCATQRLAHFLRHSSPNFGAIPSSTNVGPNTY-NH2 (disulfide 2-7; N-terminus assumed; SMILES CC[C@H](C)[C@H](NC(=O)[C@H](C)NC(=O)CNC(=O)[C@H](Cc1ccccc1)NC(=O)[C@H](CC(N)=O)NC(=O)[C@@H]1CCCN1C(=O)[C@H](CO)NC(=O)[C@H](CO)NC(=O)[C@H](Cc1c[nH]cn1)NC(=O)[C@H](CCCNC(=N)N)NC(=O)[C@H](CC(C)C)NC(=O)[C@H](Cc1ccccc1)NC(=O)[C@H](Cc1c[nH]cn1)NC(=O)[C@H](C)NC(=O)[C@H](CC(C)C)NC(=O)[C@H](CCCNC(=N)N)NC(=O)[C@H](CCC(N)=O)NC(=O)[C@@H](NC(=O)[C@H](C)NC(=O)[C@@H]1CSSC[C@H](NC(=O)[C@@H](N)CCCCNC(=O)CC[C@H](NC(=O)CCCCCCCCCCCCCCCCCCC(=O)O)C(=O)O)C(=O)N[C@@H](CC(N)=O)C(=O)N[C@@H]([C@@H](C)O)C(=O)N[C@@H](C)C(=O)N[C@@H]([C@@H](C)O)C(=O)N1)[C@@H](C)O)C(=O)N1CCC[C@H]1C(=O)N[C@@H](CO)C(=O)N[C@@H](CO)C(=O)N[C@H](C(=O)N[C@@H](CC(N)=O)C(=O)N[C@H](C(=O)NCC(=O)N1CCC[C@H]1C(=O)N[C@@H](CC(N)=O)C(=O)N[C@H](C(=O)N[C@@H](Cc1ccc(O)cc1)C(N)=O)[C@@H](C)O)C(C)C)[C@@H](C)O, synthetic analogue of human amylin; also called compound 67) | 14.7 | 85.4 | 51.6 | 0.172
